According to patent US9493781B2, “Synthetic brassica-derived chloroplast transit peptides” (DOW AGROSCIENCES LLC, priority 2012, dated 2016):

How the values were obtained:
[1] = test system: Arabidopsis; test: dgt-28, dgt-32, dgt-33, dgt-3, dgt-7 transformed Arabidopsis (T1, T2, T3) response to postemergence glyphosate, % visual injury; type: in vivo, Arabidopsis thaliana; settings: 14 days after application
How it was run: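 Transgenic T1, T2 and T3 Arabidopsis (low-copy events for T2/T3, hemizygous and homozygous in T2) sprayed postemergence with glyphosate at 105, 420, 1,680 or 3,360 g ae/ha. Visual injury scored 2 weeks after treatment as mean, SD and range. Non-transformed Columbia served as sensitive control.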

[2] = test system: Arabidopsis; test: Heritability progeny test of T1 families (T2 plants) with glufosinate, Arabidopsis; type: in vivo, Arabidopsis thaliana; settings: progeny test of 100 T2 plants, glufosinate 200 g ae/ha
From the text: Heritability. Confirmed transgenic T1 Arabidopsis events were self-pollinated to produce T2 seed. These seed were progeny tested by applying Ignite™ herbicide containing glufosinate (200 g ae/ha) to 100 random T2 siblings. […] The T1 families (T2 plants) segregated in the anticipated 3 Resistant: 1 Sensitive model for a dominantly inherited single locus with Mendelian inheritance as determined by Chi square analysis (P>0.05). […] Seed were collected from 5 to 15 T2 individuals (T3 seed). Twenty-five T3 siblings from each of 3-4 randomly-selected T2 families were progeny tested as previously described.

[3] = Table 8, T1 Arabidopsis, 105 g ae/ha glyphosate
[4] = Table 8, T1 Arabidopsis, 420 g ae/ha glyphosate
[5] = Table 8, T1 Arabidopsis, 1680 g ae/ha glyphosate
[6] = Table 8, T1 Arabidopsis, 3360 g ae/ha glyphosate
[7] = Table 10, T1 Arabidopsis, 1,680 g ae/ha glyphosate
[8] = Table 12, T2 Arabidopsis, 1 copy, 420 g ae/ha glyphosate
[9] = Table 12, T2 Arabidopsis, 1 copy, 840 g ae/ha glyphosate
[10] = Table 12, T2 Arabidopsis, 1 copy, 1680 g ae/ha glyphosate
[11] = Table 12, T2 Arabidopsis, 1 copy, 3360 g ae/ha glyphosate

B1: pDAB105532: TraP9 v2 -- dgt-28 v5: binary construct TraP9 v2: dgt-28 v5 (SEQ ID NO:35) (nucleic acid)
DNA: ATGGCACAAGCCAGCCGTATCTGCCAGAATCCATGTGTGATATCCAATCTCCCCAAAAGCAACCACCGTAAGTCCCCTTTCTCTGTCTCACTCAAGACGCATCAGCCTAGAGCCTCTTCATGGGGACTTAAGAAGTCTGGCACCATGCTGAACGGTTCAGTGATTAGACCCGTCAAGGTGACAGCTTCTGTTTCCGCAGCAAGAGGGATGCCAGCCTTGTCTTTACCTGGATCAAAGAGTATCACAGCTAGGGCACTCTTTCTTGCTGCTGCTGCTGATGGGGTTACTACTTTGGTGAGGCCATTGAGAAGTGACGACACAGAAGGATTCGCTGAGGGGTTAGTTCGTTTAGGCTATCGTGTAGGGAGGACACCCGATACTTGGCAAGTCGATGGCAGACCACAAGGACCAGCAGTGGCTGAGGCTGACGTCTACTGTAGAGACGGAGCAACCACCGCTAGATTCTTGCCAACCTTAGCAGCTGCTGGTCACGGAACATACAGATTTGATGCTTCACCACAGATGAGGAGACGTCCTCTTTTGCCCTTAAGCAGAGCCTTGAGGGATTTGGGTGTCGATCTTAGACACGAAGAAGCTGAAGGTCATCACCCTCTGACTGTCCGTGCTGCTGGGGTTGAAGGAGGAGAGGTTACTTTGGATGCTGGTCAGTCAAGTCAGTATCTCACTGCCTTGTTGCTCCTTGGTCCCCTTACAAGACAAGGACTGAGGATAAGGGTTACTGATTTGGTGTCAGCACCATACGTGGAGATTACGCTTGCAATGATGAGGGCTTTCGGAGTTGAAGTGGCAAGGGAGGGAGATGTGTTCGTTGTTCCACCTGGTGGATATCGTGCAACTACGTATGCTATAGAACCCGACGCAAGTACTGCTTCTTACTTCTTCGCAGCTGCTGCTTTGACTCCTGGAGCTGAAGTGACTGTACCTGGGTTAGGCACGGGAGCACTTCAAGGAGATTTGGGATTTGTAGATGTCTTAAGGAGAATGGGAGCCGAGGTGTCCGTAGGAGCTGATGCAACCACTGTTAGAGGAACTGGTGAATTGCGTGGCCTTACAGCCAACATGAGAGACATAAGTGATACGATGCCGACCCTCGCTGCAATAGCACCCTTTGCTAGTGCTCCAGTTAGAATCGAGGATGTTGCCAACACTCGTGTCAAAGAATGTGACAGACTTGAGGCTTGTGCAGAGAACCTTAGGAGGTTGGGAGTAAGGGTTGCAACGGGTCCGGACTGGATTGAGATACACCCTGGTCCAGCTACTGGTGCTCAAGTCACAAGCTATGGTGATCACAGAATTGTGATGTCATTTGCAGTGACTGGACTTCGTGTGCCTGGGATCAGCTTCGACGACCCTGGCTGTGTTCGTAAGACTTTTCCTGGGTTTCACGAGGCTTTCGCAGAATTGAGGCGTGGCATTGGGAGCTGA
modifications: In-frame fusion of dgt-28 v5 and TraP9 v2
For B1, the “% Injury Ave” value [1, 3] was 17.5%, the “% Injury Range (%)” value [1, 3] was 0-60% and the “No. plants with 20-40% injury” value [1, 3] was 0. The “No. plants with <20% injury” value [1, 3] was 3, the “No. plants with >40% injury” value [1, 3] was 1 and the “% Injury Ave” value [1, 4] was 39.5%. For the same molecule, the “% Injury Range (%)” value [1, 4] was 18-70%, the “No. plants with 20-40% injury” value [1, 4] was 1 and the “No. plants with <20% injury” value [1, 4] was 1. For the same molecule, the “No. plants with >40% injury” value [1, 4] was 2, the “% Injury Ave” value [1, 5] was 26.3% and the “% Injury Range (%)” value [1, 5] was 5-80%. For the same molecule, the “No. plants with 20-40% injury” value [1, 5] was 0, the “No. plants with <20% injury” value [1, 5] was 3 and the “No. plants with >40% injury” value [1, 5] was 1. For the same molecule, the “% Injury Ave” value [1, 6] was 25.8%, the “% Injury Range (%)” value [1, 6] was 8-75% and the “No. plants with 20-40% injury” value [1, 6] was 0. The “No. plants with <20% injury” value [1, 6] was 3, the “No. plants with >40% injury” value [1, 6] was 1 and the “% Injury Ave” value [1, 7] was 26.3%. The “% Injury Range (%)” value [1, 7] was 5-80%, the “No. plants with 20-40% injury” value [1, 7] was 0 and the “No. plants with <20% injury” value [1, 7] was 3. The “No. plants with >40% injury” value [1, 7] was 1, the “% Injury Ave” value [1, 8] was 2.0% and the “% Injury Range (%)” value [1, 8] was 0-8%. The “No. plants with 20-40% injury” value [1, 8] was 0, the “No. plants with <20% injury” value [1, 8] was 4 and the “No. plants with >40% injury” value [1, 8] was 0. The “% Injury Ave” value [1, 9] was 9.0%, the “% Injury Range (%)” value [1, 9] was 8-12% and the “No. plants with 20-40% injury” value [1, 9] was 0. For the same molecule, the “No. plants with <20% injury” value [1, 9] was 4, the “No. plants with >40% injury” value [1, 9] was 0 and the “% Injury Ave” value [1, 10] was 7.3%. The “% Injury Range (%)” value [1, 10] was 2-12%, the “No. plants with 20-40% injury” value [1, 10] was 0 and the “No. plants with <20% injury” value [1, 10] was 4. For the same molecule, the “No. plants with >40% injury” value [1, 10] was 0, the “% Injury Ave” value [1, 11] was 11.0% and the “% Injury Range (%)” value [1, 11] was 10-12%. The “No. plants with 20-40% injury” value [1, 11] was 0, the “No. plants with <20% injury” value [1, 11] was 4 and the “No. plants with >40% injury” value [1, 11] was 0. The “T1 Families Tested Segregating at 1 Locus (%)” value [2] was 100%.
